According to patent publication JP2005330292A (dated 2005):

Key:
[1] = biological target: T1, ヒト組織因子(TF)(ヒト膀胱癌細胞J82上に発現) (human, UniProt P13726 33-295); test: cell ELISA on fixed J82 cells; chimeric antibody as the reference
T1 construct: whole, on cells; Target of the cell ELISA; also called ヒトTF; 抗原

[2] = biological target: T2, 可溶型ヒトTF(アミノ酸配列1-219のC末端にFLAGペプチドを連結、CHO細胞発現) (human, UniProt P13726 33-251); test: dot blot of shTF on nitrocellulose: native, 8 M urea-denatured, and 8 M urea + 5 mM DTT
T2 construct: also called shTF; 可溶型TF

[3] = biological target: T1, ヒト組織因子(TF)(ヒト膀胱癌細胞J82上に発現); test: cell ELISA on fixed J82 cells

Binder	binding result [1]	binding result [2]	binding result [3]
H鎖ヒト型化バージョンb/L鎖ヒト型化バージョンb抗体 (antibody, V domains shown, Human IgG4 kappa (vector N5KG4P); also called b-b; bb) VH: QVQLLESGAVLARPGTSVKISCKASGFNIKDYYMHWVKQRPGQGLEWIGGNDPANGHSMYDPKFQGRVTITADTSTNTAYMELSSLRSEDTAIYYCARDSGYAMDYWGQGTLVTVSS VL: DIQMTQSPSSLSASVGDRVTITCKASQDIKSFLSWYQQKPGKAPKLLIYYATSLADGVPSRFSGSGSGTDYTLTISSLQPEDFATYYCLQHGESPYTFGGGTKVEIK		binds	binds
H鎖ヒト型化バージョンi/L鎖ヒト型化バージョンb抗体 (antibody, V domains shown, Human IgG4 kappa (vector N5KG4P); also called i-b; ib) VH: QVQLLESGAVLARPGTSVKISCKASGFNIKDYYMHWVKQRPGQGLEWIGGNDPANGHSMYDPKFQGRVTITADTSTSTVFMELSSLRSEDTAVYYCARDSGYAMDYWGQGTLVTVSS VL: DIQMTQSPSSLSASVGDRVTITCKASQDIKSFLSWYQQKPGKAPKLLIYYATSLADGVPSRFSGSGSGTDYTLTISSLQPEDFATYYCLQHGESPYTFGGGTKVEIK		binds	binds

Continued, values first:

binding result [1]	binding result [2]	binding result [3]	Binder
binds	binds		H鎖キメラ/L鎖キメラ抗体(キメラATR-5抗体) (antibody, V domains shown, Mouse ATR-5 V regions joined to human C regions; Both an IgG1 (N5KG1(V)) and an IgG4 (N5KG4P) kappa vector were built; also called ch-ch; chATR-5) VH: EVQLQQSGTNLVRPGALVKLSCKGSGFNIKDYYMHWVKQRPEQGLEWIGGNDPANGHSMYDPKFQGKASITADTSSNTAYLQLSSLTSEDTAVYFCARDSGYAMDYWGQGTSVTVSS VL: DIKMTQSPSSMYASLGERVTITCKASQDIKSFLSWYQQKPWKSPKTLIYYATSLADGVPSRFSGSGSGQDYSLTINNLESDDTATYYCLQHGESPYTFGGGTKLEIK
	binds	binds	H鎖ヒト型化バージョンi/L鎖ヒト型化バージョンb2抗体 (antibody, V domains shown, Human IgG4 kappa (vector N5KG4P); also called i-b2; ib2) VH: QVQLLESGAVLARPGTSVKISCKASGFNIKDYYMHWVKQRPGQGLEWIGGNDPANGHSMYDPKFQGRVTITADTSTSTVFMELSSLRSEDTAVYYCARDSGYAMDYWGQGTLVTVSSAS VL: DIQMTQSPSSLSASVGDRVTITCKASQDIKSFLSWYQQKPEKAPKSLIYYATSLADGVPSRFSGSGSGTDYTLTISSLQPEDFATYYCLQHGESPYTFGGGTKVEIK
